These results are taken from the supplement of paper PMC9112550, “Optimization of the antimicrobial peptide Bac7 by deep mutational scanning” (BMC Biology, 2022).

The test system of this series is Escherichia coli TOP10. Briefly: shrunken log2 fold change of peptide-encoding DNA abundance (4.5 h post-induction vs induction); higher = less antimicrobial activity (less host growth inhibition). As to conditions: time post-induction: 4.5 h; library: site-saturation at positions 5, 18, 19, 20.
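Further: peptides expressed intracellularly from a pBAD plasmid library in pooled LB shake-flask culture, induced with 0.3% L-arabinose, DNA abundance read by NGS, three biological replicates, DESeq2 with apeglm shrinkage.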

RRIRCRPPRLPRPRPRPTSYPRP: the “shrunken log2 fold change” value was -0.119.
The same measure for RRIRNRPPRLPRPRPRPHCKPRP: -0.249; for RRIRDRPPRLPRPRPRPNDQPRP: -0.154; for RRIRFRPPRLPRPRPRPTFCPRP: -0.152.
As for RRIRLRPPRLPRPRPRPHRKPRP, the “shrunken log2 fold change” value is -0.295.
Consider RRIRYRPPRLPRPRPRPNTPPRP, for which the “shrunken log2 fold change” value was -0.179.
Take RRIRCRPPRLPRPRPRPYNQPRP: the “shrunken log2 fold change” value was -1.23.
For the sequence RRIRMRPPRLPRPRPRPLREPRP, the “shrunken log2 fold change” value turned out to be 3.88.
For the sequence RRIRHRPPRLPRPRPRPICVPRP, the “shrunken log2 fold change” value is 0.0683.
RRIRYRPPRLPRPRPRPYREPRP: the “shrunken log2 fold change” value stood at 0.0196.
In the case of RRIRSRPPRLPRPRPRPRSNPRP, the “shrunken log2 fold change” value is -0.186.
With RRIRIRPPRLPRPRPRPYRCPRP, the “shrunken log2 fold change” value is -0.0728.
As for RRIRQRPPRLPRPRPRPKNRPRP, the “shrunken log2 fold change” value was 0.0773.
For RRIRTRPPRLPRPRPRPVQMPRP, the “shrunken log2 fold change” value was determined as 0.000776.
RRIRIRPPRLPRPRPRPFWAPRP: the “shrunken log2 fold change” value was -0.0374.
Regarding RRIRKRPPRLPRPRPRPFLWPRP, the “shrunken log2 fold change” value is -0.119.
Consider RRIRARPPRLPRPRPRPAQDPRP, for which the “shrunken log2 fold change” value was 0.232.
Take RRIRWRPPRLPRPRPRPQYCPRP: the “shrunken log2 fold change” value is -0.198.
Regarding RRIRNRPPRLPRPRPRPDSTPRP, the “shrunken log2 fold change” value is -0.028.
On to RRIRIRPPRLPRPRPRPGSMPRP, for which the “shrunken log2 fold change” value was -0.501.
With RRIRDRPPRLPRPRPRPKKRPRP, the “shrunken log2 fold change” value came out at 0.403.
In the case of RRIRERPPRLPRPRPRPSIRPRP, the “shrunken log2 fold change” value is -0.242.
For RRIRPRPPRLPRPRPRPLTSPRP, the “shrunken log2 fold change” value was -0.125.
The same measure for RRIRHRPPRLPRPRPRPIDPPRP: 0.0865; for RRIRERPPRLPRPRPRPKEDPRP: 0.0193.
The same measure for RRIRNRPPRLPRPRPRPNGLPRP: 0.00468.
Consider RRIRLRPPRLPRPRPRPAMWPRP, for which the “shrunken log2 fold change” value came out at 0.373.
As for RRIRPRPPRLPRPRPRPKMQPRP, the “shrunken log2 fold change” value worked out at 0.132.
Consider RRIRYRPPRLPRPRPRPLCRPRP, for which the “shrunken log2 fold change” value was -0.863.
RRIRRRPPRLPRPRPRPQAVPRP: the “shrunken log2 fold change” value was determined as 0.331.
Consider RRIRWRPPRLPRPRPRPQMRPRP, for which the “shrunken log2 fold change” value worked out at 0.147.
In the case of RRIRDRPPRLPRPRPRPDMSPRP, the “shrunken log2 fold change” value is -0.0165.
As to RRIRSRPPRLPRPRPRPYPRPRP, the “shrunken log2 fold change” value is -0.45.
The same measure for RRIRFRPPRLPRPRPRPLAMPRP: -0.0206; for RRIRMRPPRLPRPRPRPLNCPRP: -0.158; for RRIRKRPPRLPRPRPRPVCWPRP: 0.897.
Consider RRIRWRPPRLPRPRPRPMLSPRP, for which the “shrunken log2 fold change” value is -0.0162.
RRIRARPPRLPRPRPRPKMYPRP: the “shrunken log2 fold change” value came to 0.152.
In the case of RRIRCRPPRLPRPRPRPWTQPRP, the “shrunken log2 fold change” value is -0.12.
Take RRIRIRPPRLPRPRPRPEEQPRP: the “shrunken log2 fold change” value amounted to 0.0175.
Take RRIRLRPPRLPRPRPRPYQWPRP: the “shrunken log2 fold change” value is -0.241.
On to RRIRQRPPRLPRPRPRPGMWPRP, for which the “shrunken log2 fold change” value amounted to 0.191.
With RRIRHRPPRLPRPRPRPLWTPRP, the “shrunken log2 fold change” value was -0.174.
In the case of RRIRIRPPRLPRPRPRPQGLPRP, the “shrunken log2 fold change” value came out at 0.0413.
As to RRIRHRPPRLPRPRPRPLKRPRP, the “shrunken log2 fold change” value is -0.00686.
In the case of RRIRLRPPRLPRPRPRPASSPRP, the “shrunken log2 fold change” value was -0.0827.
The same measure for RRIRRRPPRLPRPRPRPGAKPRP: 0.701.
Consider RRIRFRPPRLPRPRPRPLDDPRP, for which the “shrunken log2 fold change” value was -0.209.
On to RRIRRRPPRLPRPRPRPQCEPRP, for which the “shrunken log2 fold change” value is 0.153.
Consider RRIRVRPPRLPRPRPRPNCCPRP, for which the “shrunken log2 fold change” value was -0.0903.
For the sequence RRIRDRPPRLPRPRPRPFWSPRP, the “shrunken log2 fold change” value amounted to 0.000201.
The same measure for RRIRKRPPRLPRPRPRPCITPRP: -0.146; for RRIRWRPPRLPRPRPRPLNWPRP: 0.101; for RRIRDRPPRLPRPRPRPVYPPRP: -0.089.
The same measure for RRIRGRPPRLPRPRPRPVPRPRP: 0.806; for RRIRIRPPRLPRPRPRPNWNPRP: -0.388.
Take RRIRTRPPRLPRPRPRPTIVPRP: the “shrunken log2 fold change” value is -0.0242.
Take RRIRSRPPRLPRPRPRPFFNPRP: the “shrunken log2 fold change” value was 0.00333.
On to RRIRNRPPRLPRPRPRPHDIPRP, for which the “shrunken log2 fold change” value is -0.0337.
Consider RRIRPRPPRLPRPRPRPTNLPRP, for which the “shrunken log2 fold change” value is -0.107.
Regarding RRIRNRPPRLPRPRPRPFFDPRP, the “shrunken log2 fold change” value is -0.0739.
Consider RRIRDRPPRLPRPRPRPIATPRP, for which the “shrunken log2 fold change” value was -0.0393.
With RRIRFRPPRLPRPRPRPGKNPRP, the “shrunken log2 fold change” value amounted to 0.0341.
Consider RRIRRRPPRLPRPRPRPCHSPRP, for which the “shrunken log2 fold change” value was found to be 0.00408.
The value for RRIRRRPPRLPRPRPRPLNSPRP was 0.134; that for RRIRCRPPRLPRPRPRPQDKPRP was -0.579; that for RRIRMRPPRLPRPRPRPMMAPRP was 1.8.
With RRIRCRPPRLPRPRPRPFCFPRP, the “shrunken log2 fold change” value is -0.0725.
For the sequence RRIRTRPPRLPRPRPRPQARPRP, the “shrunken log2 fold change” value is -0.0339.
Take RRIRARPPRLPRPRPRPQLTPRP: the “shrunken log2 fold change” value was found to be 0.179.
In the case of RRIRSRPPRLPRPRPRPFNNPRP, the “shrunken log2 fold change” value was -0.458.
For the sequence RRIRARPPRLPRPRPRPGPFPRP, the “shrunken log2 fold change” value came out at 0.231.
RRIRGRPPRLPRPRPRPYPHPRP: the “shrunken log2 fold change” value turned out to be 0.103.
The value for RRIRERPPRLPRPRPRPQYNPRP was -0.927; that for RRIRQRPPRLPRPRPRPIHTPRP was 0.0773.
As to RRIRYRPPRLPRPRPRPPVAPRP, the “shrunken log2 fold change” value was found to be 0.0771.
With RRIRPRPPRLPRPRPRPRGLPRP, the “shrunken log2 fold change” value was determined as 0.198.
The same measure for RRIRQRPPRLPRPRPRPNHCPRP: -0.0615.
For RRIRDRPPRLPRPRPRPKDSPRP, the “shrunken log2 fold change” value was -0.0525.
Regarding RRIRWRPPRLPRPRPRPPHVPRP, the “shrunken log2 fold change” value was 0.444.
Turning to RRIRIRPPRLPRPRPRPIMHPRP, the “shrunken log2 fold change” value is -0.252.
With RRIRDRPPRLPRPRPRPFYIPRP, the “shrunken log2 fold change” value is -0.796.
As for RRIRSRPPRLPRPRPRPTPNPRP, the “shrunken log2 fold change” value was 0.306.
Regarding RRIRTRPPRLPRPRPRPYNIPRP, the “shrunken log2 fold change” value is -0.131.
The value for RRIRQRPPRLPRPRPRPECQPRP was -0.0746; that for RRIRSRPPRLPRPRPRPLDRPRP was 0.218; that for RRIRLRPPRLPRPRPRPQDSPRP was -0.276.
For the sequence RRIRHRPPRLPRPRPRPSCQPRP, the “shrunken log2 fold change” value is -0.31.
Turning to RRIRARPPRLPRPRPRPAEKPRP, the “shrunken log2 fold change” value was -0.0197.
With RRIRSRPPRLPRPRPRPKVSPRP, the “shrunken log2 fold change” value was found to be 0.21.
Consider RRIRNRPPRLPRPRPRPAYGPRP, for which the “shrunken log2 fold change” value amounted to 0.118.
